Data reported in article PMC4598320, “Novel binders derived from an albumin-binding domain scaffold targeting human prostate secretory protein 94 (PSP94)” (Protein & Cell, 2015).
Where “and” joins values, the source holds several entries; their conditions need not be identical. Identical values can stand only once. Ends that are not written are not given here.

T1: recombinant HisTag-PSP94 (human prostate secretory protein 94) (human, UniProt P08118 21-114, fluorescent label (in the microscale thermophoresis only))
T1 construct: prostate secretory protein 94 (PSP94, β-microseminoprotein), human, product of the MSMB gene; The letter has no methods section; the construct may be told in the supplementary file; also called His-PSP94; β-microseminoprotein; not shown: His tag, N-terminal, kept
T1 sequence (looked up): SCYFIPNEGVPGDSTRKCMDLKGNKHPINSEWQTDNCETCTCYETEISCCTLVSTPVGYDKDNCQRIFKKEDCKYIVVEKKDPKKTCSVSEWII

T2: PSP94 of LNCaP prostate cancer cells (membrane-bound on the cell surface); intracellular in permeabilized … (human (endogenous in LNCaP), UniProt P08118 21-114)
T2 construct: the cells were not transfected; source: endogenous, LNCaP cells (on the cell surface; inside permeabilized cells)
T2 sequence (looked up): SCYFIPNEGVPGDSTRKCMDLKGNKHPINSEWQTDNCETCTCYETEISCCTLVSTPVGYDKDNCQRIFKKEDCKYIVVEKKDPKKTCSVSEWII


Legend:
[1] = target: T1, recombinant HisTag-PSP94 (human …); test: MST; fluorescently labelled HisTag-PSP94 in solution, PAB variants titrated; thermophoresis + T-jump data, NanoTemper software; conditions: both partners purified
[2] = target: T2, PSP94 of LNCaP prostate cancer cells …; test: flow cytometry on cells; competition: LNCaP cells with (80 µg/mL) or without rabbit polyclonal antibody sc-68920 for 15 min on ice, then PAB binders at 10 µg/mL for 30 min; streptavidin-PE; conditions: one partner purified
both these PAB proteins = test: flow cytometry on cells; competition: PAB variants mixed with increasing concentrations of recombinant HisTag-PSP94 and left to bind LNCaP cells for 30 min; streptavidin-PE; binding without PSP94 taken as 100%; pair recombinant PSP94 with PAB

Row | Binder | Kd [1] | percent inhibition of binding by polyclonal antibody sc-68920 (the pair that is blocked) [2] | percent inhibition of PAB binding to LNCaP cells at 20 µg/mL PSP94 (both these PAB proteins)
1 | LAEAKVLANRELDKYGVSDRYKNAINRAPAVWWVKRLIDAILAALP (designed binder, not fully specified (N-terminus, C-terminus), numbers count on: the 46-residue ABD scaffold; positions 20-46 of the ABD scaffold with the 11 randomized positions as selected in PAB046; 46-residue ABD variant linked to a 305-residue TolA spacer with a C-terminal AviTag; also called PAB046 variant; source: E. coli, purified, in vivo biotinylated; not shown: His tag, N-terminal, kept; TolA spacer (helical, 305 amino acids), C-terminal, kept; …) [PAB046 (HisTag-PAB-TolA-AviTag fusion protein)] | 49 ± 10 nM | 30% | –
2 | LAEAKVLANRELDKYGVSDWYKNGINPAHRVRWVKGRIDAILARLP (designed binder, not fully specified (N-terminus, C-terminus), numbers count on: the 46-residue ABD scaffold; positions 20-46 of the ABD scaffold with the 11 randomized positions as selected in PAB036; 46-residue ABD variant linked to a 305-residue TolA spacer with a C-terminal AviTag; also called PAB036 variant; source: E. coli, purified, in vivo biotinylated; not shown: His tag, N-terminal, kept; TolA spacer (helical, 305 amino acids), C-terminal, kept; …) [PAB036 (HisTag-PAB-TolA-AviTag fusion protein)] | 40 nM and 72 nM | ~15% | –
3 | LAEAKVLANRELDKYGVSDLYKNHINTAWRVAAVKRAIDLILASLP (designed binder, not fully specified (N-terminus, C-terminus), numbers count on: the 46-residue ABD scaffold; positions 20-46 of the ABD scaffold with the 11 randomized positions as selected in PAB050; 46-residue ABD variant linked to a 305-residue TolA spacer with a C-terminal AviTag; also called PAB50; PAB050 variant; source: E. coli, purified, in vivo biotinylated; not shown: His tag, N-terminal, kept; TolA spacer (helical, 305 amino acids), C-terminal, …) [PAB050 (HisTag-PAB-TolA-AviTag fusion protein)] | 10 nM and 12 nM and 21 nM | 30% | –
4 | recombinant HisTag-PSP94 (human prostate secretory protein 94) (natural protein, fluorescent label (in the microscale thermophoresis only)) SCYFIPNEGVPGDSTRKCMDLKGNKHPINSEWQTDNCETCTCYETEISCCTLVSTPVGYDKDNCQRIFKKEDCKYIVVEKKDPKKTCSVSEWII | – | – | 5 to 10%
